Test results from the supplement of paper PMC12764529.
± gives the half width of the 95% confidence interval.

Experiments:
[1] = folding stability dG unfold from chymotrypsin proteolysis; higher = more stable
Summary of the method: (§1)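 Designed mini-proteins with no cysteine and under 80 residues were kept only if AlphaFold2 dimer inter-PAE was above 15. In a PA-tagged cDNA display construct, they were digested with trypsin and chymotrypsin and then sequenced. K50 was inferred by Bayesian fitting of counts, and unfolding free energy was derived per protease or combined against a sequence-predicted unfolded-state K50 and a shared folded-state K50.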

[2] = folding stability dG unfold from trypsin proteolysis; higher = more stable
Summary of the method: as §1

[3] = folding stability dG unfold (combined trypsin and chymotrypsin); higher = more stable
Summary of the method: as §1

Sequence	folding stability dG unfold [1]	folding stability dG unfold [2]	folding stability dG unfold [3]
SAKPKVIAEITIYNKETGKVVRITLTDEALEEAKKKGLKEVKLTVEIEVVNPDGSKKTFKMEITLKVEDSAG [r14_100_TrROS_Hall]	4.08 ± 0.17 kcal/mol	2.77 ± 0.26 kcal/mol	3.96 ± 0.26 kcal/mol
SAMLGAEELVRRIAEEIERRLGVPAGFDVPVRVYRPEDALVIDAYIVARGPDGEPLGERRITLVLRPEDSAG [r14_708_TrMRF]	3.49 ± 0.051 kcal/mol	1.94 ± 0.032 kcal/mol	2.93 ± 0.11 kcal/mol
SAGGMKEIEIDIPLENGEPAKIRIILLNLPDKPRAFIDIESKILPKEEIAKIITKLLPEEIKEVVIDESAGG [r13_404_TrMRF]	0.383 ± 0.5 kcal/mol	1.03 ± 0.092 kcal/mol	0.694 ± 0.28 kcal/mol
SAGGSAGGEPPPVVITVTVRNPATGETVKATAVLNPDGTLQVTVTRPDGSKQTFTATISAEALKSAGGSAGG [r6_588_TrROS_Hall]	3.86 ± 0.15 kcal/mol	2.76 ± 0.33 kcal/mol	3.63 ± 0.34 kcal/mol
SAGPEPDWVYIKAKVDKGGIKIEWYNPDGPWEFKLPDGEEIYIFIPPGGSPEDMLDEFKNFAKELADKSAGG [r19_170_TrROS]	2.1 ± 0.21 kcal/mol	1.41 ± 0.22 kcal/mol	2.18 ± 0.71 kcal/mol
SAGMPIKAKVLIFDPVNPVPKEFEFDVEDLDELVEKIREELGVEVVVDPESGVVVVDTPDGSLIVIEFDSAG [r5_937_TrMRF]	2.93 ± 0.077 kcal/mol	3.08 ± 0.093 kcal/mol	3.01 ± 0.043 kcal/mol
SAGGSAGGSAGGKKTIEIMIFYDPGDPERAKEKARDIANTLQARFPNVTVKITVFRFPNSAGGSAGGSAGGS [r10_223_TrROS]	2.5 ± 0.048 kcal/mol	1.87 ± 0.074 kcal/mol	2.25 ± 0.14 kcal/mol
SAGGSAGGSAGGSMEFEVAEVFPDGWVVLRFPDGSRYRARLALDPETGEAKLLSLEPLPSAGGSAGGSAGGS [r4_247_TrMRF]	4.41 ± 0.071 kcal/mol	3.27 ± 0.077 kcal/mol	4.15 ± 0.2 kcal/mol
SAGGSAGGSDYLMIWIPPDALKGMPPGQEIEFEIKFNGGEYKVKIKVMPHENGHYMIMITVEPSAGGSAGGS [r12_433_TrROS]	4.59 ± 0.3 kcal/mol	3.2 ± 0.35 kcal/mol	4.06 ± 0.25 kcal/mol
SAGGSAGVKSSSPNGLTLEFPFESEEEVEEAVKEIKKAFPENYEVKIEIEKSEKILKVKIIVKKKDSAGGSA [r15_80_TrMRF]	2.14 ± 0.061 kcal/mol	1.08 ± 0.04 kcal/mol	1.9 ± 0.091 kcal/mol
SAGGSAGGSAISIMIDDPDDLELAEEIANNIRDHFPDFPIKVEVERMPGNPDYYMIRVEWESAGGSAGGSAG [r3_131_TrROS]	1.52 ± 0.042 kcal/mol	1.79 ± 0.073 kcal/mol	1.66 ± 0.096 kcal/mol
SAGGMSIEELLKEAGYEVTVEEEEVDGKLRLKITIKANGKTLVIEVPESDAEEVLREIAKALGLEPESAGGS [r8_226_TrROS_Hall]	3.01 ± 0.047 kcal/mol	4.2 ± 0.42 kcal/mol	3.53 ± 0.18 kcal/mol
SAEKLKKILENIEKVEFDEETGEVYITVKSVEEAEKALKELFPDVEIEKDEDGNYRFRIRVEKLPEELLSAG [r14_115_TrROS_Hall]	4.68 ± 0.082 kcal/mol	3.66 ± 0.12 kcal/mol	4.4 ± 0.084 kcal/mol
SAGGNMWEQIRMIVRELAKEGHPWITFDKIHKELGRPITPEWREWLRDAGFIEHDPNGSMTFRIPPGASAGG [r13_188_TrROS]	0.89 ± 0.1 kcal/mol	1.36 ± 0.032 kcal/mol	1.17 ± 0.056 kcal/mol
SAGIKPGDPVVIKFNVPPELREKIKEAFEKPGYEYEFHPETGEVTVVAPAENIDELMKLPYIEEIVPGSAGG [r19_212_TrMRF]	0.768 ± 0.1 kcal/mol	0.891 ± 0.052 kcal/mol	0.817 ± 0.15 kcal/mol
SAMNLKTFKIEVPDGKIFTIPPNYKAEIVEYDPEKGVVTIKLTAYETNPLKEVEKKEFSFKFKFLEEFPSAG [r14_927_TrMRF]	1.62 ± 0.082 kcal/mol	1.181 ± 0.011 kcal/mol	1.46 ± 0.086 kcal/mol
SAGGWTIEEIIDAIREAKENGPGQKVEIEIPFGGGPVRVSIEVPPDGRVKIEIQYDNKPIWEIEIPVSAGGS [r16_611_TrROS]	2.12 ± 0.081 kcal/mol	1.98 ± 0.14 kcal/mol	2.02 ± 0.15 kcal/mol
